The target in this assay is recombinant anthrax protective antigen (PA) (Bacillus anthracis, UniProt P13423 30-764). In words: SPR (Biacore 3000), antibody immobilized on CM3, PA in solution. In general terms: Surface plasmon resonance follows binding to a sensor surface in real time, without labels.
recombinant anthrax protective antigen (PA), sequence (P13423 30-764 limits assumed): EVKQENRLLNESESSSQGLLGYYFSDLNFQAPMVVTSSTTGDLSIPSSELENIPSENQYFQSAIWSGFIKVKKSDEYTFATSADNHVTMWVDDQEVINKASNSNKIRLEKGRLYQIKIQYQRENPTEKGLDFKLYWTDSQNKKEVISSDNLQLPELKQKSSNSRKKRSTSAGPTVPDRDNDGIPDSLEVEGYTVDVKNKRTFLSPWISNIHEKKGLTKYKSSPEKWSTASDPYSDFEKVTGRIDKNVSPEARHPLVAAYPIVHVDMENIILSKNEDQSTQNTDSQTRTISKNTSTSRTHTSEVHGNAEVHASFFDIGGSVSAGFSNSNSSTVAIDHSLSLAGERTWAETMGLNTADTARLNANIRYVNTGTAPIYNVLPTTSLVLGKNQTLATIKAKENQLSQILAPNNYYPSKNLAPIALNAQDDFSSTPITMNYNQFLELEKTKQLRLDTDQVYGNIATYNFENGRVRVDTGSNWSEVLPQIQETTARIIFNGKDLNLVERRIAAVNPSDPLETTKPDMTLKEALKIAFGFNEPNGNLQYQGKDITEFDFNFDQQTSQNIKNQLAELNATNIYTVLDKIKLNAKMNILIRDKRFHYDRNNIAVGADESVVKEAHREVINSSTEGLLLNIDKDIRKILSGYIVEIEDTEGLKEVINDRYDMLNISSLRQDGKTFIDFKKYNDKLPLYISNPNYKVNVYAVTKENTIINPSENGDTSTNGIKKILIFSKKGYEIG

B1: anti-PA W1 full-length IgG1 (antibody, V domains shown)
VH: EVQLLETGGGLVQPGGSLRLSCAASGFTLRSYHMSWVRRAPGKGLEWVSVIYDGGSTSYADSVKGRFTISRDNSKNTLYLQMTSLRAEDTAVYYCARSGRPLQNYYYMDVWGKGTTVTVSS
VL: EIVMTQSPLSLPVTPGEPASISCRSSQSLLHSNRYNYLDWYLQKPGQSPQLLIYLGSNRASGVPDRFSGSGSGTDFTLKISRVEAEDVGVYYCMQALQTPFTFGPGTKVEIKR
Consider B1, for which the Kd worked out at 0.0397 nM, the off-rate (koff) turned out to be 1.15e-05 s⁻¹ and the kon was 290000 M⁻¹ s⁻¹.

As usually defined, the Kd is the free concentration of one partner at which half of the binding sites on the other are occupied at equilibrium, for simple one-to-one binding. The term koff denotes the rate constant with which the complex falls apart. The term kon denotes the second-order rate constant of association.

These data come from US20100074892A1 (US Dept. of Health and Human Services, published 2010).
